From patent publication US20130039933

Legend:
[1] = system: A366 peptide (STING peptide substrate with alanine at 366)
[2] = system: S366 peptide (STING peptide substrate with serine 366)

Substance | Activity (cpm) [1] | Activity (cpm) [2] | Fold induction [2]
CK1δ | 15600 cpm | 25200 cpm | 1.62 fold
NEK6 | 5510 cpm | 35600 cpm | 6.45 fold
NEK7 | 3620 cpm | 19100 cpm | 5.28 fold
PIM2 | 1410 cpm | 3720 cpm | 2.63 fold
